Assay: soluble on expression in E. coli; label from the status in PepcDB or PDB records

Sequence	soluble on expression in E. coli
MDTSSVGGLELTDQTPVLLGSTAMATSLTNVGNSFSGPANPLVSRSNKFQNSSVEDDDDVVFIEPVQPPPPSVPVVADQRTITFTSSKNEELQGNDSKITPSSKELASQKGSVSETIVIDDEEDMETNQGQEKNSSNFIERRPPETKNRTNDVDFSTSSFSRSKTKTGVGPFNPGRMNVAGDVFQNGESATHHNPDSWISQSASFPRNQKQPGVDSLSPVASLPKQIFQPSVQQQPTKPVKVTCANCKKPLQKGQTAYQRKGSAHLFCSTTCLSSFSHKPAPKKLCVMCKKDITTMKGTIVAQVDSSESFQEFCSTSCLSLYEDKQNPTKGALNKSRCTICGKLTEIRHEVSFKNMTHKLCSDHCFNRYRMANGLIMNCCEQCGEYLPSKGAGNNVLVIDGQQKRFCCQSCVSEYKQVGSHPSFLKEVRDHMQDSFLMQPEKYGKLTTCTGCRTQCRFFDMTQCIGPNGYMEPYCSTACMNSHKTKYAKSQSLGIICHFCKRNSLPQYQATMPDGKLYNFCNSSCVAKFQALSMQSSPNGQFVAPSDIQLKCNYCKNSFCSKPEILEWENKVHQFCSKTCSDDYKKLHCIVTYCEYCQEEKTLHETVNFSGVKRPFCSEGCKLLYKQDFARRLGLRCVTCNYCSQLCKKGATKELDGVVRDFCSEDCCKKFQDWYYKAARCDCCKSQGTLKERVQWRGEMKHFCDQHCLLRFYCQQNEPNMTTQKGPENLHYDQGCQTSRTKMTGSAPPPSPTPNKEMKNKAVLCKPLTMTKATYCKPHMQTKSCQTDDTWRTEYVPVPIPVPVYIPVPMHMYSQNIPVPTTVPVPVPVPVFLPAPLDSSEKIPAAIEELKSKVSSDALDTELLTMTDMMSEDEGKTETTNINSVIIETDIIGSDLLKNSDPETQSSMPDVPYEPDLDIEIDFPRAAEELDMENEFLLPPVFGEEYEEQPRPRSKKKGAKRKAVSGYQSHDDSSDNSECSFPFKYTYGVNAWKHWVKTRQLDEDLLVLDELKSSKSVKLKEDLLSHTTAELNYGLAHFVNEIRRPNGENYAPDSIYYLCLGIQEYLCGSNRKDNIFIDPGYQTFEQELNKILRSWQPSILPDGSIFSRVEEDYLWRIKQLGSHSPVALLNTLFYFNTKYFGLKTVEQHLRLSFGTVFRHWKKNPLTMENKACLRYQVSSLCGTDNEDKITTGKRKHEDDEPVFEQIENTANPSRCPVKMFECYLSKSPQNLNQRMDVFYLQPECSSSTDSPVWYTSTSLDRNTLENMLVRVLLVKDIYDKDNYELDEDTD	soluble
MAFYLPDWSCCGLWLFGRPRNRYSQLPEEPETFECPDRWRAEIDLGLPPGVQVGDLLRNEQTMGSLRQVYLLAVQANSITDHLKRFDAVRVPESCRGVVEAQVAKLEAVRSVIWNTMISLAVSGIEMDENGLKALLDKQAGDSLALMEMEKVATALKMDETGAWAQEISAVVSSVTAPSASAPFINSAFEPEVPTPVLAPPPVVRQPEHSGPTELALT	not soluble
MSLKVRLEDVAKRLGVSVATVSRSLAGHPAISSETRGAVRAVASELGYRIPTQGRRGKKSSTKLIGVVVGALHNRFMTLLLTHLHDALQELGYQMTLVIDSMNDSQNLQALRPLIEGYLDGLIFATATLDSPVIAEMQRRAIPLVLVVRSVDDVRVDTVEIDNVHAGAVAAEHLYQLGHRRIGLVMGPQNTSTSRDRAKGALTYLADIGISSEAVTLMWSDYTTEAGYSSAMAIFNEADPVTAIVAGNDTIALGVLEAAARRAIKVPEQLSVIGFDDMPLAGSPLVALTSIRQPVRAMARTAARRLIDRIRAGGMGAPVHDVLPIQLVRRETTGPREGHHHHHH	soluble
SLTTQRLGLIMNGVTGRMGLNQHLIRSIVAIRDQGGVRLKNGDRIMPDPILVGRSAEKVEALAKRFNIARWTTDLDAALADKNDTMFFDAATTQARPGLLTQAINAGKHVYCEKPIATNFEEALEVVKLANSKGVKHGTVQDKLFLPGLKKIAFLRDSGFFGRILSVRGEFGYWVFEGGWQEAQRPSWNYRDEDGGGIILDMVCHWRYVLDNLFGNVQSVVCIGNTDIPERFDEQGKKYKATADDSAYATFQLEGGVIAHINMSWVTRVYRDDLVTFQVDGTHGSAVAGLSDCMIQARQATPRPVWNPDEKRLHDFYGDWQKLPDNVSYDNGFKEQWEMFIRHVYEDAPYKFTLLEGAKGVQLAECALKSWKERRWIDVAPIK	soluble
MGSDKIHHHHHHMFKKVAADVLGLSDVGSVITPKDYDKVDADDYVMHEDGEKIYFLIKSKSDEYCFTNKGLLHLDGTSATSKKRTLRRFSYSKYQIKNVALETAGTIDLDVEIKFQMGDEHYSIDVHKKHIEELKDLYKALLKIEEISYDNDITLQYAHKSLDMASNAFSRISNAQVNLAEQFKEMNEIAFNWLVDTKKQYNVKDYGFVFEKFINN	not soluble
MRGSHHHHHHGSLQVTVRDAINQGMDEELERDEKVFLLGEEVAQYDGAYKVSRGLWKKYGDKRIIDTPISEMGFAGIAVGAAMAGLRPICEFMTFNFSMQAIDQVINSAAKTYYMSGGLQPVPIVFRGPNGASAGVAAQHSQCFAAWYGHCPGLKVVSPWNSEDAKGLIKSAIRDNNPVVVLENELMYGVPFEFPPEAQSKDFLIPIGKAKIERQGTHITVVSHSRPVGHCLEAAAVLSKEGVECEVINMRTIRPMDMETIEASVMKTNHLVTVEGGWPQFGVGAEICARIMEGPAFNFLDAPAVRVTGADVPMPYAKILEDNSIPQVKDIIFAIKKTLNI	soluble
LRFQMNTRQFVSCWRSHKDELIATYFDASTDSQVGKAISDLGLNAGQTASLRTVIDGVLTDAFYSLLLGLDGAASIGPVQQPYEIRAEDGSVIRDIEPEAWAQFHDRSA	not soluble
MGSDKIHHHHHHMPLKRLNRFRLWLWETPPVYEIRGRCFQIKERLCGYPELHRAFRERTGYELSLHHPCTFHHKITVLKIRRSPRIFVRAVDKIFAKELALEWAHQHGFRLYVARTLAVTKDVSEIRWHELPQRFLIKATHRSGANLFVDQSQAFDLDALRVQSRAWLQYPYGVYKHEWAYWPVPRRLLIEELIEPVDGEELVDYKFHMSRGRCLMIQVNQGLRSGKRTIAILHPSWQLQPVKWVYPQPEVIPQRPDTFYEMLEMASAFSREFPYLRVDLYSVKQVMSGVMVSRVMFGEFTFFPGSGSESVDPFAFDLAIGKEIKL	not soluble
MQAQNMTEASTVHVEHDPVRQRFNVDTDGHRAELAYRREGEIMTITHTQVPDAVSGRGIAAALVEDALAFARQHGLKVVPACRYADAYVRRHPRYQDLLAMAGDPLEHHHHHH	not soluble
MGSDKIHHHHHHMTWDQSPLRGGEPIVSVQSPFEAIERGPKMEMRDIDFLIIGATKSATTWLQQSLQQDPGIFMPDPELHYFSRYYERGDEWYLEHFAGQEHRRLRGEKSNSYMDVPEAAERIKEKLPEARLIAHVRNPVDRAYSDYCMLYRRAEVGRDIAQYLDPRQGAGGRFLNGGLYYQQLQGYLDRFPAEQILVLLYEDLKIDARAQLARVRGFLGLEADVPLKPLAKKVKDKSEPVVNPTLRRLLRPLKPVAAPFRQNTGFKKLRSLIAGELQYAPLSHDLRARMTDYFAPETEKLGALVGRDLTDWLRNRSPEK	not soluble
MGSDKIHHHHHHACTDDSNDVVATTSEVIEQAEVPFSVVLKAMNSDGNDITTKGEVNGATLFVFDQNNDFFEQINVNKSTILSRRAIDINCPNSNDITVIAWSGINSGNEEISNMSKANIISDLQVSLKENNGIANIPSDLFYGQVTLHKNSSTKSTVSNELQIIRKTSIFQLSTKGLIKYLGSNAGNFEYRIKNTKSSLDYNGNPTGEEVEFAFPASFDEKGNLTTETQAIFPAQNITVELYKDGNLIFSSEKDKNGELFAATPGKRTEITFKYSGEVSANITIADWATVIQHITMN	not soluble
MTDVRHCPAVLIAAPASGQGKTTVTAALARLHRNRGRKVRVFKCGPDFLDPMILERASGAAVYQLDMWMVGEQESRRLLWEAAGEADLILIEGVMGLFDGTPSSADLARHFGVPVLGVIDGTAMAQTFGALALGLARYQPDLPFAGVLANRVGTLRHAQLLEGSLTEGLRWYGALSRETDIELPSRHLGLVQASELNDLDLRLDAAAEALASSCQVELPPAVSFAAPTPVACAPLLKGVRIAVARDEAFAFTYGASLDLLRAMGAQLSFFSPIHDTQLPDADSLYLPGGYPELHHQALARNSSMLQAIRAHHAAGKPLLAECGGMLYLLDSLTDVEGQRAELLGLLPGDAVMQKRLAALALQAVDLPEGSLRGHTYHHSLTSTELLPIARGLSPNGGRGAEAVYRQGRMTASYVHFYFPSNPAAVAALFAPGAPVEPVLAEGVAGELEHHHHHH	not soluble
MGSDKIHHHHHHMKKHAYLIIAHDNWKILEKLLILLDDKRNDIYLHIDRKSNLINFSNNVHNANLFVFHEIDVRWGDISLIQVEFFLFKTAYCKGNYSYYHLISGSDLPLKTQDEIHAFFDAHYPTEFIGFSLEMTCDDRVNRAYIFPKYQRIKNRYGNKLLGSLRSFCAFLQKILNYNHYKLKDKLMIGPEWVSITEQSVSLILSKEKVIMKQYRFASCGDEVYKQTIIGNSFLFNYVYDKNDDYKGCMRYIDWTRGNPYIFRSADFEQLMSSDRMFARKFDEKVDFDIVERIFEVLNGQTSDSKMKYYF	not soluble
MKKTIYKCVLPLLICILLTGCWDRTEINDIAFVVSSAIDKKKDQYRVAMQIPLVGQLGGQTGGGGGTAGSKTWYVDSASGTTIREANNKLQTSLSRTINTSHRRTVIIGEDMARDGVAPVFDILTRNPQNRLTALILVSRGEARDILNTDVQLEQFPAEMIRELAIIATSRPVFLSRFMSDLVEIGSDPYAPVISASKTKPGGKGKSNLKIDGLAIFKKDRLMDIFKDEHMTAALMLLNQARQPEFIVDLPNQMGQASIQLQKSNASFHAAEKNGKLSMTIEIRAKGIIMENQSTYETRENDQYYIIQKALNRTIKKDVISTVHRLQKLKADPAGFQDRTIRSTATTKNLLKKEWEEVYKDMEVHVVPIVTIEQGGVLYKTISH	not soluble
MQDKCMMRPLSNPLTEAYNVQNLYQCLNCDDYHLCNGSLNCDPLVDREGIVCTVTGKYIQCNVRELEHHHHHH	not soluble
MFKKFLSLCIVSTFSVAATSALAQPNQLVGKSSPQQLAPLMKAASGKGIKNQYIVVLKQPTTIMSNDLQAFQQFTQRSVNALANKHALEIKNVFDSALSGFSAELTAEQLQALRADPNVDYIEQNQIITVNPIISASANAAQDNVTWGIDRIDQRDLPLNRSYNYNYDGSGVTAYVIDTGIAFNHPEFGGRAKSGYDFIDNDNDASDCQGHGTHVAGTIGGAQYGVAKNVNLVGVRVLGCDGSGSTEAIARGIDWVAQNASGPSVANLSLGGGISQAMDQAVARLVQRGVTAVIAAGNDNKDACQVSPAREPSGITVGSTTNNDGRSNFSNWGNCVQIFAPGSDVTSASHKGGTTTMSGTSMASPHVAGVAALYLQENKNLSPNQIKTLLSDRSTKGKVSDTQGTPNKLLYSLTDNNTTPNPEPNPQPEPQPQPDSQLTNGKVVTGISGKQGELKKFYIDVPAGRRLSIETNGGTGNLDLYVRLGIEPEPFAWDCASYRNGNNEVCTFPNTREGRHFITLYGTTEFNNVSLVARY	not soluble
MTTILTYPFKNLPTASKWALRFSIRPLSCSSQLRAAPAVQTKTKKTLAKPNIRNVVVVDGVRTPFLLSGTSYKDLMPHDLARAALTGLLHRTSVPKEVVDYIIFGTVIQEVKTSNVAREAALGAGFSDKTPAHTVTMACISANQAMTTGVGLIASGQCDVIVAGGVELMSDVPIRHSRKMRKLMLDLNKAKSMGQRLSLISKFRFNFLAPELPAVSEFSTSETMGHSADRLAAAFAVSRLEQDEYALRSHSLAKKAQDEGLLSDVVPFKVPGKDTVTKDNGIRPSSLEQMAKLKPAFIKPYGTVTAANSSFLTDGASAMLIMAEEKALAMGYKPKAYLRDFMYVSQDPKDQLLLGPTYATPKVLEKAGLTMNDIDAFEFHEAFSGQILANFKAMDSDWFAENYMGRKTKVGLPPLEKFNNWGGSLSLGHPFGATGCRLVMAAANRLRKEGGQYGLVAACAAGGQGHAMIVEAYPK	not soluble
